This note sets out measurements from article PMC5233613, “Structural insights into the recognition of phosphorylated FUNDC1 by LC3B in mitophagy” (Protein & Cell, 2016).

Non-standard residues stand in square brackets, D forms with d. No end group written: not given here. pY = N[C@@H](Cc1ccc(OP(=O)(O)O)cc1)C(=O)O; pS = N[C@@H](COP(=O)(O)O)C(=O)O

Common to all, as to test: ITC; MicroCal iTC200, 25 °C; proteins 0.25 mmol/L and peptides 3 mmol/L, dialyzed against buffer B (20 mmol/L Tris-HCl, 200 mmol/L NaCl, 1 mmol/L EDTA, pH 8.0); single binding site model
Holding throughout (settings): both partners purified

In assay [1] the target is microtubule-associated protein light chain 3 beta (LC3B), wild type, full-length 1-125 (human, UniProt Q9GZQ8 1-120).
In assay [2] the target is LC3B R70E (human, UniProt Q9GZQ8 1-120, R70E).
Assay [3] concerns the target LC3B K49E (human, UniProt Q9GZQ8 1-120, K49E).
Assay [4] concerns the target LC3B K51A (human, UniProt Q9GZQ8 1-120, K51A).
Assay [5] addresses LC3B K49A (human, UniProt Q9GZQ8 1-120, K49A).
The target in assay [6] is LC3B R70A (human, UniProt Q9GZQ8 1-120, R70A).
Assay [7] concerns the target LC3B K49R (human, UniProt Q9GZQ8 1-120, K49R).
For assay [8], the target named is LC3B I23A (human, UniProt Q9GZQ8 1-120, I23A).
For assay [9], the target named is LC3B L53A (human, UniProt Q9GZQ8 1-120, L53A).
Assay [10] deals with LC3B D19A (human, UniProt Q9GZQ8 1-120, D19A).
Assay [11] has as its target LC3B R10A (human, UniProt Q9GZQ8 1-120, R10A).
Assay [12] addresses LC3B R10E (human, UniProt Q9GZQ8 1-120, R10E).
Assay [13] concerns the target LC3B R11A (human, UniProt Q9GZQ8 1-120, R11A).
The target of assay [14] is LC3B R11E (human, UniProt Q9GZQ8 1-120, R11E).
The target in assay [15] is LC3B D48A (human, UniProt Q9GZQ8 1-120, D48A).
In assay [16] the target is LC3B L47A (human, UniProt Q9GZQ8 1-120, L47A).
In assay [17] the target is LC3B V46A (human, UniProt Q9GZQ8 1-120, V46A).
For assay [18], the target named is LC3B T50A (human, UniProt Q9GZQ8 1-120, T50A).
Assay [19] deals with LC3B F7A (human, UniProt Q9GZQ8 1-120, F7A).

B1: FUNDC1 LIR peptide 10-25 phosphorylated at Tyr18 (peptide)
peptide: DYESDDDS[pY]EVLDLTE
notes: also called FUNDC1 pY18; pY18 peptide; source: synthetic peptide (GL Biochem, Shanghai)
With B1, in [1], the dissociation constant Kd stood at 16.8 ± 2.1 µM, the dH was -0.93 kcal/mol and the “stoichiometry N” value came out at 1.16.

B2: FUNDC1 LIR peptide 10-25 phosphorylated at Ser17 (peptide)
peptide: DYESDDD[pS]YEVLDLTE
notes: also called FUNDC1 pS17; FUNDC1 pS17 peptide; source: synthetic peptide (GL Biochem, Shanghai)
Consider B2, for which the Kd in assay [2] was 61 ± 3.44 µM; in assay [3], 120 ± 5.72 µM; in [4] it was 5.92 ± 0.75 µM; in [5] it was 3.56 ± 0.21 µM; in [1] it was 0.59 ± 0.06 µM; in assay [6], 15.8 ± 1.5 µM. Moreover, the dissociation constant Kd in assay [7] was 0.33 ± 0.07 µM; in assay [8], 4.85 ± 0.25 µM; in [9], 0.97 ± 0.14 µM; in assay [10] it was 2.39 ± 0.3 µM. For the same molecule, the dH in assay [2] was -2.54 kcal/mol; in assay [3], -4.49 kcal/mol; in assay [4], -2.66 kcal/mol; in [5], -4.9 kcal/mol; in assay [1], -3.51 kcal/mol; in [6], -1.8 kcal/mol. In addition, the dH in assay [7] is -5.78 kcal/mol; in assay [8], -1.53 kcal/mol; in assay [9], -2.61 kcal/mol; in assay [10] it was -2.78 kcal/mol. Further, the “stoichiometry N” value in [2] turned out to be 1.03; in assay [3], 0.93; in [4], 1.03; in assay [5] it was 1.08; in assay [1], 1; in assay [6] it was 1.04. Besides, the “stoichiometry N” value was found to be 1.17 in [7], 1.04 in [8], 1.03 in assay [9] and 1.16 in assay [10].

B3: FUNDC1 LIR peptide 10-25 phosphorylated at Ser13 (peptide)
peptide: DYE[pS]DDDSYEVLDLTE
notes: also called FUNDC1 pS13; pS13 peptide; source: synthetic peptide (GL Biochem, Shanghai)
For the molecule B3, the Kd worked out at 28.5 ± 2.97 µM in [11]; 4.63 ± 0.13 µM in assay [1]; 34 ± 3.46 µM in assay [12]; 11.2 ± 0.73 µM in [13]; 17.1 ± 1.05 µM in assay [14]. The dH in [11] is -3.67 kcal/mol; in [1], -3.81 kcal/mol; in assay [12], -2.83 kcal/mol; in assay [13], -4.1 kcal/mol; in assay [14], -2.39 kcal/mol. Moreover, the “stoichiometry N” value in assay [11] stood at 1.02; in [1], 1.13; in assay [12], 1.03; in assay [13], 1.11; in assay [14], 1.04.

B4: FUNDC1 LIR peptide 10-25, unphosphorylated (peptide)
peptide: DYESDDDSYEVLDLTE
notes: FUNDC1 (Fun14 domain-containing protein 1), LIR and flanking residues 10-25; also called unphosphorylated FUNDC1 peptide; FUNDC1 peptide; source: synthetic peptide (GL Biochem, Shanghai)
On to B4, for which the dissociation constant (Kd) in assay [11] was 11.4 ± 1.14 µM; in [1] it was 1.78 ± 0.16 µM; in assay [15], 1.17 ± 0.15 µM; in [16], 3.07 ± 0.64 µM; in assay [13], 5.62 ± 0.25 µM; in [17] it was 1.59 ± 0.19 µM. The Kd in assay [18] amounted to 2.81 ± 0.31 µM; in [19], 3.52 ± 0.23 µM. Also, the dH was -3.56 kcal/mol in assay [11]; -3.15 kcal/mol in [1]; -3.03 kcal/mol in assay [15]; -2.06 kcal/mol in assay [16]; -4.51 kcal/mol in assay [13]; -4.86 kcal/mol in assay [17]. The dH in assay [18] was -2.65 kcal/mol; in [19], -3.08 kcal/mol. Further, the “stoichiometry N” value was determined as 1.01 in assay [11]; 1.02 in assay [1]; 0.98 in [15]; 1.19 in assay [16]; 1.12 in assay [13]; 1.02 in assay [17]. Moreover, the “stoichiometry N” value in assay [18] was 1.02; in assay [19], 1.17.
